According to PMC2879509:

T1: MSL2-ΔRING (Drosophila melanogaster, UniProt P50534 1-40+86-773, internal_change)
T1 sequence: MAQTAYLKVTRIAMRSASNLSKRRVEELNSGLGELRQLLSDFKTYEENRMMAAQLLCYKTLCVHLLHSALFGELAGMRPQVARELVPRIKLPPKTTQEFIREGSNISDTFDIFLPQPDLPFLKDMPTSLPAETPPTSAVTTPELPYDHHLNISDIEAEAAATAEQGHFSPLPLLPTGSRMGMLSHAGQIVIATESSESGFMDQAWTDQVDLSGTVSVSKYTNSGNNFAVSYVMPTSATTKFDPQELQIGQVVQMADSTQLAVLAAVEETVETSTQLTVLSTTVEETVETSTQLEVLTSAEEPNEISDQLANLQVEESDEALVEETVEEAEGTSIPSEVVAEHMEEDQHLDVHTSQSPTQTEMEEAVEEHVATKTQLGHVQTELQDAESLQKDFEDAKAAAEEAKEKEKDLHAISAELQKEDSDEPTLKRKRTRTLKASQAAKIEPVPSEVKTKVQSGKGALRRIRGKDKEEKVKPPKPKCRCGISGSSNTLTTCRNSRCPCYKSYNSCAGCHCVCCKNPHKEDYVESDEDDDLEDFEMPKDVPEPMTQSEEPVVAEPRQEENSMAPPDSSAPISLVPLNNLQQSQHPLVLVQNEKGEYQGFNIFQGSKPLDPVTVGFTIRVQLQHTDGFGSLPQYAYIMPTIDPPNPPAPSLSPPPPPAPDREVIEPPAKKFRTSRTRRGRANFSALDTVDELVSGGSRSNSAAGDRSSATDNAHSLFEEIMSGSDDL

T2: MSL2-ΔCXC (Drosophila melanogaster, UniProt P50534 1-519+572-773, internal_change)
T2 sequence: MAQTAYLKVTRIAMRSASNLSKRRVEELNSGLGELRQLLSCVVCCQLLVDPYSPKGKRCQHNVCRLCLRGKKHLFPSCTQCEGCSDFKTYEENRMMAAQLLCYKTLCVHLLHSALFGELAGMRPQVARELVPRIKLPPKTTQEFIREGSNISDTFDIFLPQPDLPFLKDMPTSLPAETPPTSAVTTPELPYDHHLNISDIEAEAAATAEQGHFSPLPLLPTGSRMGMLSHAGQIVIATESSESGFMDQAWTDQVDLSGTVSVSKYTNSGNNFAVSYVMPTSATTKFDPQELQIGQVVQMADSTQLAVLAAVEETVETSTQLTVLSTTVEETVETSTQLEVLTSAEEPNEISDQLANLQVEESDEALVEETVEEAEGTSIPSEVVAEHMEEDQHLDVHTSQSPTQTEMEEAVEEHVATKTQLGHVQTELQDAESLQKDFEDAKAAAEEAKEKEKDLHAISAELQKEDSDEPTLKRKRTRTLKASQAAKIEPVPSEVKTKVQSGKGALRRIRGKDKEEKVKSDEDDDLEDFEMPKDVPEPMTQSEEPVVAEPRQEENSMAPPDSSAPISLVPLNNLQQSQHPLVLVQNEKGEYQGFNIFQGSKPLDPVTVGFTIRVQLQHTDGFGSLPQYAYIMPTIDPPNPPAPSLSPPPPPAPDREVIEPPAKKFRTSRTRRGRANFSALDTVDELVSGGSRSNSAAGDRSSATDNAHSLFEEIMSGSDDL

T3: MSL2 (Drosophila melanogaster, UniProt P50534 1-773)
T3 sequence: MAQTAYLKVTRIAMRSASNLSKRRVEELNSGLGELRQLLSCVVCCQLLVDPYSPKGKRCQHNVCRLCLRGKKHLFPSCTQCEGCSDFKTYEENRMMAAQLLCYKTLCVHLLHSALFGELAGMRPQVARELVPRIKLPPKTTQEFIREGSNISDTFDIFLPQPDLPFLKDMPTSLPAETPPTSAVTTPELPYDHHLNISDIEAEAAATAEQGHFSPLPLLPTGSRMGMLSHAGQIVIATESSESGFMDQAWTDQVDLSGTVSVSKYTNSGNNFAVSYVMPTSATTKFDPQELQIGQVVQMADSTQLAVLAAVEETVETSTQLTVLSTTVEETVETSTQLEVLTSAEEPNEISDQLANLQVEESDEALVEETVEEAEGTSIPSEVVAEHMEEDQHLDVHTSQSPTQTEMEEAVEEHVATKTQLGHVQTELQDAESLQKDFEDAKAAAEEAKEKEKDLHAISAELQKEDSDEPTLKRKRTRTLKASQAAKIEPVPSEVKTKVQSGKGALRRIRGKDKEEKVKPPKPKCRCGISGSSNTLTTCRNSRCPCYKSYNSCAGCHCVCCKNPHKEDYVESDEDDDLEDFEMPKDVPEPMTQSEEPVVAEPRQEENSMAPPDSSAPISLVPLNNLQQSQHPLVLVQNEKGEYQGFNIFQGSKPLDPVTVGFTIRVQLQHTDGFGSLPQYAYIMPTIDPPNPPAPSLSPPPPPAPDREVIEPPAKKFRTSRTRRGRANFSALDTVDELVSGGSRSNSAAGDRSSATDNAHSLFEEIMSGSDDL

B1: DBF12-L15 dsRNA 40 bp (dsRNA)
RNA 1: UGCGGCCAUCUCUUUCGUUUUGAUGUUUCUACGCCAUGUG
RNA 2: CACAUGGCGUAGAAACAUCAAAACGAAAGAGAUGGCCGCA

Legend:
[1] = target: MSL2-ΔPro/Bas (Drosophila melanogaster) (UniProt P50534); experiment: EMSA
MSL2-ΔRING = target: T1, MSL2-ΔRING; experiment: EMSA
MSL2-ΔCXC = target: T2, MSL2-ΔCXC; experiment: EMSA
MSL2 [2] = target: T3, MSL2; experiment: EMSA
MSL2 [3] = target: T3, MSL2; experiment: competition

| Molecule | Kd [1] | Kd (MSL2-ΔRING) | Kd (MSL2-ΔCXC) | Kd (MSL2 [2]) | IC50 (MSL2 [3]) |
| --- | --- | --- | --- | --- | --- |
| UGCGGCCAUCUCUUUCGUUUUGAUGUUUCUACGCCAUGUG / CACAUGGCGUAGAAACAUCAAAACGAAAGAGAUGGCCGCA [DBF12-L15 dsRNA 40 bp] | 37 nM | – | – | – | – |
| B1 | – | 23 ± 5 nM | 29 ± 12 nM | 21 ± 4 nM | 36 ± 8 nM |
